According to patent publication US20170233449A1 (Teva, published 2017):
Changes are numbered by the printed parent chain.

T1: cynomolgus monkey CD38 extracellular domain (ECD), tagged (cynomolgus monkey, Avitag biotinylated (in the ELISAs))
T1 construct: also called cynomolgus monkey CD38 ED
T1 chain: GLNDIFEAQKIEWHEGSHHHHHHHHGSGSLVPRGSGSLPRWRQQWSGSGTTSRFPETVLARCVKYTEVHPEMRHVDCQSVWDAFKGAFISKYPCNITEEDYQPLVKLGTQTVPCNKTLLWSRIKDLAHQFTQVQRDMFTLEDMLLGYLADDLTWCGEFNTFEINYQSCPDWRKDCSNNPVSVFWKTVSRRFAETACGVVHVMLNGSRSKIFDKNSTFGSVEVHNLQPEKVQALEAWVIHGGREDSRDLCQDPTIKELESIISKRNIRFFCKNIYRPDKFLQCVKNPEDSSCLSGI

B1: X355/01 FAb (Fab, V domains shown)
VH: QVQLVQSGAEVKKPGSSVKVSCKASGGNFISYSISWVRQAPGKRLEWMGWIIPIFGTTTYVQKFQGRVTITADESTSTAYMELSSLRSEDTAVYYCARVKYGSGSYYPNNWFDPWGQGTLVTVSS
VL: EIVLTQSPATLSASPGERATLSCRASQSISSNLAWYQQKPGQAPRLLIQDSSTRATGIPARFSGSGSGTEFTLTISSLQSEDFAVYYCQQSDNWPLTFGGGTKVDIK
notes: human Fab from E. coli lysate, V5 tag at the C-terminus of the Fab heavy chain
B2: X913/15 FAb (Fab, V domains shown)
VH: QVQLVESGGGVVQGGGSLRLSCAASGFTVRSNYMSWVRQAPGKGLEWVSAISGSGDSTYYADSVKGRFTISRDNSKNTLYLQMNSLRAEDTAVYYCAKVAVTTGWYFDLWGRGTLVTVSS
VL: QAVLTQPASLSASPGESARLTCTLPSDINVRYHNIYWYQEKPGSPPRYLLYYYSDSSKGQGSGVPSRFSGSKDVSTNTGILVISGLQSEDEAEYYCMTWSSNGSGVFGGGTQLTVL
notes: as for B1
B3: X910/12 FAb (Fab, V domains shown)
VH: EVQLVQSGAEVKKSGASVKVSCKASGYTFTDYYIHWVRQAPGQGLEWMGWINPNNGGVTFAQKFQGRVTMTRDTSISTAYMDLSSLRSDDTAVYFCARDIRMSGWLAPFDYWGQGTLVTVSS
VL: QAVLTQPASLSASPGESARLTCTLPSDINVRYYNIYWYQQKPGSPPRYLLYYYSDSHKDQGSGVPSRFSGSKDTSANTGILLISGLQSEDEADYYCMIWASNGSGVLGGGTQLTVL
notes: as for B1
B4: X355/04 FAb (Fab, V domains shown)
VH: QVQLVQSGAEVKKPGSSVKVSCKASGGTFSSYAISWVRQAPGQGLEWMGGIIPIFGTANYAQKFQGRVTITADESTSTAYMELSSLRSEDTAVYYCARDSSSWYFTYGYFQHWGQGTLVTVSS
VL: DVVMTQSPLSLPVTPGEPASISCRSSQSLLNSNGYNYLEWYVQKPGQSPQLLIFLGSNRASGVPDRFSGSGSGTDFTLKINRVEAEDVGVYYCMQALQSPLTFGGGTKVEIK
notes: as for B1
B5: R5E8 (rat hybridoma antibody) (antibody, V domains shown)
VH: EVQLQQSGPEVGRPGSSVKISCKASGYIFTDYIMHWVKQSPGQGLEWIGWIDPEYGSTDYAEKFKKKATLTADTSSSTAYIQLSSLTSEDTATYFCARVAIITTVASGGFAYWGQGTLVTVSS
VL: DIVMTQGALPNPVPSGESASITCQSSESLLHSNGKTYLNWYLQRPGQSPQLLIYWMSTRAAGVSDRFSGSGSGTDFTLTISGVEAEDVGVYYCQQFLEYPPTFGSGTKLEIK
notes: tested as rat hybridoma supernatant; kappa light chain
B6: R5D1 (rat hybridoma antibody) (antibody, V domains shown)
VH: EVQLQQSGPEVGRPGSSVKISCKASGYTFTDYIMHWVKQSPGQGLEWIGWIDPEYGRTDYAEKFKKKATLTADTSSSTAYIQLSSLASEDTATYFCARSAHTTGFGFAYWGQGTLVTVSS
VL: DIQMTQSPASLSASLGETVTIECRASEDIYSNLAWYQQKPGNSPQLLIYDANSLADGVPSRFSASGSGTQFSLKINSLRSEDVASYFCQQYNNYPYTFGAGTKLELK
notes: as for B5
B7: R7H11 (rat hybridoma antibody) (antibody, V domains shown)
VH: QVQLKESGPGLLLSSETLSLTCTVSGFSLTSYEVSWVRQLPGRGLEWMGRVWIGGDTDYNSDLKSRLSISRDIAKSQVFLKMSNLKTEDTGTYYCARAYGFNYWSFDFWGPGTMVTVSS
VL: GQFTLTQPKSVSGSLRSTITIPCERSSGDIGDNYVTWYQQHLGRPPLNVIYADDQRPSEVSDRFSGSIDSSSNSASLTITNLQMDDEADYFCQSYDSNTDIIFGGGTKVTVL
notes: tested as rat hybridoma supernatant; lambda light chain
B8: R10B10 (rat hybridoma antibody) (antibody, V domains shown)
VH: QVQLKESGPGLVQPSETLSLTCTVSGFSLTSYGVNWVRQPPGKGLEWMGRIWNDGSIDYNSALKSRLSISRDTSKGQVFLKMNSLQTEDTAIYFCARGPYNNYWYFDFWGPGTMVTVLS
VL: B7 VL with T36S, L47I, T99I, V109L
notes: as for B7
B9: R10A2 (rat hybridoma antibody) (antibody, V domains shown)
VH: EVQLQQSGPEVGRPGSSVKISCKASGYTFTDSVMNWVKQSPGQGLEWIGWIDPEYGRTDVAEKFKKKATLTADSSSSTAYIYLSGLTSEDTATYFCARTKYNSGYGFPYWGQGSLVTVSS
VL: DIVMTQSPTSISISVGERVTMNCKASQNVDSDVDWYQQKTGQSPKLLIYKASNRYTGVPDRFTGSGSGTDFTFTISNMQAEDLAVYYCMQSNTHPRTFGGGTKLELK
notes: as for B5
B10: R7F11 (rat hybridoma antibody) (antibody, V domains shown)
VH: QIQLVQSGPGLKKPGESVKISCKASGYTFTDYSMHWVKQAPGKGLQWMGWINTYSGKPTYAADFKGRFVFSLEASASTANLQISNLKNEDTATYFCARCYDGTFYYDPMDAWGQGTSVTVSS
VL: NIVLTQSPATLSVTPGESVSLSCRASQSIGTSIHWYQQKSNESPRLLIRYASQSISGIPSRFSGSGSGTDFTLSINRVESEDFSIYYCQQSYSSLVTFGSGTKLEIK
notes: as for B5
B11: X355/07 IgG1 (antibody, V domains shown)
VH: QVQLQESGPGLVKPSETLSLTCAVYGGSFSGYYWSWIRQPPGKGLEWIGSIYHSGSTYYNPSLKSRVTISVDTSKNQFSLKLSSVTAADTAVYYCARDLYYYYGMDVWGQGTTVTVSS
VL: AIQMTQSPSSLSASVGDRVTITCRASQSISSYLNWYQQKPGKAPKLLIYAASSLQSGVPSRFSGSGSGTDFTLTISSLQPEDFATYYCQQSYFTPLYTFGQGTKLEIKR
notes: human IgG1 from phage-derived Fab
B12: R5E8 IgG1 (antibody, V domains shown)
VH: B5 VH
VL: DIVMTQGALPNPVPSGESASITCQSSESLLHSNGKTYLNWYLQRPGQSPQLLIYWMSTRAAGVSDRFSGSGSGTDFTLTISGVEAEDVGVYYCQQFLEYPPTFGSGTKLEIKR
notes: chimeric rat-human IgG1
B13: R5D1 IgG1 (antibody, V domains shown)
VH: B6 VH
VL: DIQMTQSPASLSASLGETVTIECRASEDIYSNLAWYQQKPGNSPQLLIYDANSLADGVPSRFSASGSGTQFSLKINSLRSEDVASYFCQQYNNYPYTFGAGTKLELKR
notes: chimeric rat-human IgG1
B14: R10A2 IgG1 (antibody, V domains shown)
VH: B9 VH
VL: DIVMTQSPTSISISVGERVTMNCKASQNVDSDVDWYQQKTGQSPKLLIYKASNRYTGVPDRFTGSGSGTDFTFTISNMQAEDLAVYYCMQSNTHPRTFGGGTKLELKR
notes: chimeric rat-human IgG1
B15: X355/02 IgG1 (antibody, V domains shown)
VH: QLQLQESGPGLVKPSETLSLTCTVSGGSISSSSYYWSWIRQHPGKGLEWIGYIYYSGSTNYNPSLKSRVTISVDTLKNQISLRLTSVTAADTAVYYCARVGGAGGWPMDVWGQGTTVTVSS
VL: QAVLTQPASLSASPGESARLTCTLPSDINVRYYNIYWYQQKPGSPPRYLLYYYSDSHKGQGSGVPSRFSGSKDVSTNSGILLISGLQSEDEADYYCMTWSSNGSGVFGGGTQLTVLG
notes: as for B11

Target: T1, cynomolgus monkey CD38 extracellular …
Test: ELISA, biotinylated CD38 ED on streptavidin plates, FAb lysate, anti-V5-HRP
Method: (§1) Plates were then washed and individual FAb samples (prepared as described above) were added to individual wells on the ELISA plates. FAbs were allowed to bind the captured CD38 ED for an hour at room temperature and then washed three times with PBS-T (1× PBS supplemented with 0.1% Tween®20). FAbs that bound to CD38 ED were detected by incubation for 30 minutes at room temperature with an anti-V5-HRP conjugated antibody (Invitrogen, Carlsbad, Calif.) to detect the V5 tag fused to the C-terminus of the FAb heavy chain. Plates were washed to remove unbound antibody and the assay signal developed by incubation with 50 μL 3,3′,5,5′-Tetramethylbenzidine (Sigma-Adrich, St. Louis, Mo.) and quenching with 50 μL 1 M HCl. Assay signals were read at A450 nm using a microplate reader (BMG Labtech). Results were expressed as the raw A450 nm value, where any signal 2-fold greater than the average assay background was defined as ‘positive’.
(§2) In later assays FAb cross-reactivity with cynomolgus monkey CD38 ED was assessed by coating biotinylated cynomolgus monkey CD38 ED onto streptavidin coated ELISA plates and proceeding as described above.

Row | Binder | binding result
1 | B1 | binds
2 | B2 | binds
3 | B3 | binds
4 | B4 | binds

Each binder was assayed against T2, human CD38 extracellular domain (ECD), tagged (human, Avitag biotinylated (in the ELISAs)) in the same assay as above.
T2 construct: also called human CD38 ED; biotinylated human CD38
Method: as §1, §2

Row | Binder | binding result
5 | B1 | binds
6 | B2 | binds
7 | B3 | binds
8 | B4 | binds

These binders were tested against human CD38 on cells (human, UniProt P28907 1-300) (assay: flow cytometry, hybridoma supernatant on RPMI-8226 cells; background MFI average 153).
Method: Viable RPMI-8226 cells (2×10⁵, as judged by trypan blue exclusion) were incubated with 100 μL of rat hybridoma supernatant for 20 minutes on ice in the dark. Cells were washed twice with FACS buffer (1× PBS plus 1% FCS) before incubation for 20 minutes in 100 μl of FACS buffer containing anti-rat IgG-FITC conjugate (Sigma-Aldrich). After washing cells in FACS buffer, they were resuspended in FACS buffer and analysed for antibody-binding by flow cytometry on a FACS Canto (BD Biosciences, San Diego, Calif.) using EV, side scatter and FL-1 gating. Results were expressed as mean fluorescent intensity (MFI).

Row | Binder | MFI [MFI]
9 | B5 | 10600
10 | B6 | 12200
11 | B7 | 680
12 | B8 | 858
13 | B9 | 4470
14 | B10 | 11900

Target: T1, cynomolgus monkey CD38 extracellular …
Test: ELISA, hybridoma supernatant coated, biotinylated CD38 ED in solution
Method: (§3) Following incubation for 1 hour at room temperature, plates were washed as described previously. To one well of each rat antibody duplicate well was added 0.1 μg of biotinylated human CD38 in a final volume of 100 μL 1× PBS. To the second well of each rat antibody duplicate well was added 0.1 μg of biotinylated cynomolgus monkey CD38 ED in a final volume of 100 μL 1× PBS. Plate wells were washed as described previously prior to detection of bound biotinylated CD38 ED using a Streptavidin-HRP conjugate (BD Biosciences, San Diego, Calif.). Plates were washed as above to remove unbound Streptavidin-HRP conjugate and the assay signal developed by incubation with 50 μL 3,3′,5,5′-Tetramethylbenzidine (Sigma-Aldrich) and quenching with 50 μL 1 M HCl. Assay signals were read at A₄₅₀ nm using a microplate reader (BMG Labtech, Cary, N.C.).

Row | Binder | binding result
15 | B10 | binds

What follows are binders tested against T2, human CD38 extracellular domain (ECD), … in the same assay as above.
Method: as §3

Row | Binder | binding result
16 | B10 | binds

Target: T1, cynomolgus monkey CD38 extracellular …
Test: SPR (Biacore T200), antibody captured on Protein A, CD38 ED as analyte, 1:1 Langmuir fit;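 also: CM5 sensor chip in HBS-P buffer at pH 7.4, antibody loaded at 5 µg/mL, responses corrected against a blank reference flow cell before fitting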
Method: (§4) Briefly, using a Biacore T200, Protein A was immobilized onto Flow Cell (FC) 1 (FC1) and FC2 (or alternatively FC3 and FC4) of a CM5 research grade sensor chip using amine coupling, giving approximately 2000 RU. FC1 was used as a blank throughout the experiments. The experiments were run in HBS-P buffer (0.01 M HEPES pH 7.4, 0.15 M NaCl, 0.005% v/v Surfactant P20). At a flow rate of 20 μl/min, 20 μl of 5 μg/mL of antibody was passed over FC2. […] Regeneration of the surface was performed using 10mM Glycine, pH 1.0. The FC1 sensorgram data was subtracted from FCS and the curves were fitted using a 1:1 Langmuir equation to generate the kd, kₐ and KD values.

Row | Binder | Kd [nM] | koff [s⁻¹] | kon [M⁻¹ s⁻¹]
17 | B11 | 12.2 | 0.0138 | 1.13e+06
18 | B12 | 4.2 | 0.0019 | 452000
19 | B13 | 1 | 0.0011 | 1.11e+06
20 | B14 | 2.2 | 0.00193 | 898000
21 | B15 | 27.4 | 0.00228 | 83400

The binders below were run against T2, human CD38 extracellular domain (ECD), … in the same assay as above.
Method: as §4

Row | Binder | Kd [nM] | koff [s⁻¹] | kon [M⁻¹ s⁻¹]
22 | B11 | 11.4 | 0.00132 | 115000
23 | B12 | 2.9 | 0.00118 | 405000
24 | B13 | 1 | 0.000239 | 243000
25 | B14 | 0.7 | 0.000479 | 660000
26 | B15 | 7.6 | 0.000892 | 118000
